Assay [1] has as its target human PD-1 expressed on cells (human) (UniProt Q15116). As to the kind of experiment: flow cytometry on CHO cells expressing human PD-1; detection with anti-human IgG Fc (PE GeoMFI); fit of a flat control curve. On the technique in general: Flow cytometry measures light scatter and fluorescence of single cells or particles in a stream.
Assay [2] concerns the target cynomolgus PD-1 expressed on cells (cynomolgus) (UniProt B0LAJ3). As to the kind of experiment: flow cytometry on CHO cells expressing cynomolgus PD-1; detection with anti-human IgG Fc (PE GeoMFI); fit of a flat control curve.
Assay [3] deals with human PD-1 expressed on cells (human) (UniProt Q15116). As to the kind of experiment: cell-based or functional assay.

Sequence of UniProt Q15116 (Q15116 25-198 limits assumed): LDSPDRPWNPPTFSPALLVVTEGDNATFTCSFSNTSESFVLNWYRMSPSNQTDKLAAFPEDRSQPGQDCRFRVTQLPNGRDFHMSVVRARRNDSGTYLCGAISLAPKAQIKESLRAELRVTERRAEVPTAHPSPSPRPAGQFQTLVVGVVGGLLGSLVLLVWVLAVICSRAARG
Sequence of UniProt B0LAJ3 (B0LAJ3 entry or part of it limits assumed): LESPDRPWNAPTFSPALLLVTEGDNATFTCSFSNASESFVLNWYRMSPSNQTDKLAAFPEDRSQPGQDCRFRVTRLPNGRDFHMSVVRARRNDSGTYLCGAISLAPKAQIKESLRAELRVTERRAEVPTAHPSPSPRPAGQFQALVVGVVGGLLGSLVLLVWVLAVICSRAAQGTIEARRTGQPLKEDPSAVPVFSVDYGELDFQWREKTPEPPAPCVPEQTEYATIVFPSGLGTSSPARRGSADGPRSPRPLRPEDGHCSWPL

For huIgG1 Fc, the figures for the LogEC50 in assay [1] and in assay [2] were -7.75 log10(nM) and -6.89 log10(nM), respectively. For the substance human IgG Fc fragment, in assay [3], the IL-17 and IFN-γ levels, human whole blood assay, EC50 is over 100 nM.

(Values after patent US20170088618A1.)
